The data set is described as follows: yeast display, Sf9 membrane polyspecificity reagent, FACS + sequencing; frameworks hold sequencing errors. Put shortly:
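Nanobodies came from a synthetic yeast display library in Saccharomyces cerevisiae BJ5465, induced with galactose for 36–48 hours and stained for 1 hour at 4 °C with 10% biotinylated, detergent-solubilized Sf9 membrane reagent. Cells were enriched on streptavidin microbeads and then FACS-sorted, with low and high (top ~1%) gates set on anti-HA fluorescence for expression and streptavidin fluorescence for reagent binding. Each polyreactivity label reflects the gate a clone came from. Genes were amplified by colony PCR, sequenced by MiSeq 2 × 250 and filtered by CDR length.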
With “QVQLVESGGGLVQAGGSLRLSCAASGLTLYINAMGWYRQAPGKERELVAAIRTVGRTRYADSVKGRFTISRDNAKNTVYLQMNSLKPEDTAVYYCNARRYLRGYGYGYWGQGTQVTVSS”, the “polyreactivity (PSR sort gate)” value is “high polyreactivity”.
In the case of “QVQLVESGGGLVQAGGSLRLSCAASGLTLYKNGMGWYRQAPGKERELVARITSGGRTYYADSVKGRFTISRDNAKNTVYLQMNSLKPEDTAVYYCNAVKSYASLCAGFYYWGQGTQVTVSS”, the “polyreactivity (PSR sort gate)” value was “high polyreactivity”.
Regarding “QVQLVESGGGLVQAGGSLRLSCAASGLTLYRYAMGWYRQPPGKEREMVAGISWGGGSTYYADSVKGRFTISRDNAKNTVYLQMNSLKPEDTAVYYCAAGRLLYIPRYYYWGQGTQVTVSS”, the “polyreactivity (PSR sort gate)” value is recorded as “high polyreactivity”.
As for “QVQLVESGGGLVQAGGSLRLSCAASGLTLYTYAMGWYREAPGKESELVAAISKNGGRTYYADSVKGRFTISRDNAKNTVYLQMNSLKPEDTAVYYCAARARVGTVTFDFWGQGTQVTVSS”, the “polyreactivity (PSR sort gate)” value is “high polyreactivity”.
“QVQLVESGGGLVQAGGSLRLSCAASGLTSIHYMGWSRQAPGKERELVATITSSTGSTYYADSVKGRFTISRDNAKNTVYLQMNSLKPEDTAVYYCAAESFGADGPYQPSYDYWGQGTQVTVSS”: the “polyreactivity (PSR sort gate)” value was “low polyreactivity”.
In the case of “QVQLVESGGGLVQAGGSLRLSCAASGLTSLGNAMGWYRQAPGKERELVAAITRTGTSTYYADSVKGRFTISRDNAKNTVYLQMNSLKPEDTAVYYCAALDRYSTEYKYQLYKQEYDYWGQGTQVTVSS”, the “polyreactivity (PSR sort gate)” value is given as “low polyreactivity”.
Regarding “QVQLVESGGGLVQAGGSLRLSCAASGLTVDTYDMGWYIQAPGKERELVAAIDWSGVSTYYADSVKGRFTISRDNAKNTVYLQKNSLKTEDTAVYYCAADLLQYDIASWDYTYDYWGQGTQVTVSS”, the “polyreactivity (PSR sort gate)” value was “low polyreactivity”.
“QVQLVESGGGLVQAGGSLRLSCAASGLTYAKYVMRWYRQAPGNERELVAAISRSGGSTFYADSVKGRFTISRDNAKNTVYLQMNSLKPEDTAVYYCAAAAWDPKGSRYDYWGQGTQVTVSS”: the “polyreactivity (PSR sort gate)” value was “low polyreactivity”.
With “QVQLVESGGGLVQAGGSLRLSCAASGLTYSNAMGWYRQAPGKERELVAAISWRGGRTYYADSVKGRFTISRDNAKNTVYLQMNSLKPEDTAVYYCAKYAHGHKWYGYWGQGTQVTVSS” the entry was “low polyreactivity”.
For “QVQLVESGGGLVQAGGSLRLSCAASGLTYYYYAKGWYRQAPGKERDFVAAISRSGGTTYYADSVKGRFTISRDNAKNTDYLQMNSLKPEDTAVYYCNAQWWRYRPSQVIFDYWGQGTQVNVSS”, the “polyreactivity (PSR sort gate)” value is listed as “high polyreactivity”.
With “QVQLVESGGGLVQAGGSLRLSCAASGMGWYRQAPGKERELVAAITSTDGSTYYADSVKGRFTISRDNAKNTVYLQMNSLTPEDTAVYYCAVEPYLWPVFSDDDYWGQGTQVTVSS” the entry was “low polyreactivity”; with “QVQLVESGGGLVQAGGSLRLSCAASGNIFARYAMGWYRQAPGKERELVAAISRSGGSTYYADSVKGRFTISRDNAKNTVYLQMNSLKPEDTAVYYCNAKSYGVLYWFAYDYWGQGTQVTVSS”, “high polyreactivity”.
With “QVQLVESGGGLVQAGGSLRLSCAASGNIFAVNAMGWSRQAPGKERELVARIRYSTGRTYYADSVKGRFTISRDNAKNTVYLQMNSLKPEDTAVYYCATDYYTTRVPGGYDYWGHGTQVTVSS” the entry was “high polyreactivity”; with “QVQLVESGGGLVQAGGSLRLSCAASGNIFAVYAMGWYRQAPGKERELVAAISYSSTRTYYADSVKGRFRISRDNAKNTVYLQMNSLKPEDTAVYYCAVETWWDYDYWGQGTQVTVSS”, “high polyreactivity”.
“QVQLVESGGGLVQAGGSLRLSCAASGNIFAWSAMGWYRQAPGKERELVARITVGSTYYADSVKGRFTISRDNAKNTVYLQMNSLKPEDTAVYYCNKDSGEDDRWPYDYWGQGTQVTVSS”: the “polyreactivity (PSR sort gate)” value is given as “low polyreactivity”.
On to “QVQLVESGGGLVQAGGSLRLSCAASGNIFAYYAMGWYRQAPGKERELVAAITDSGGNTFYADSVKGRFTISRDNAKNTVYLQMNSLKPEDTAVYYCAADPDGWGFVYPRYDYWGQGTQVTVSS”, for which the “polyreactivity (PSR sort gate)” value is “low polyreactivity”.
In the case of “QVQLVESGGGLVQAGGSLRLSCAASGNIFAYYAMGWYRQAPGKERELVAGISRRGGNTYYADSVKGRFTISRDNAKNTVYLQMNSLKPEDTAVYYCAAKTYSGQRFDYWGQGTQVTVSS” it was “high polyreactivity”; in that of “QVQLVESGGGLVQAGGSLRLSCAASGNIFDTYVMGWYRQAPGKERELVAAITSDGGTYYADSVKGRFTIARDNAKNTVYLQMNSLKPEDTAVYYCAADTYYYPIQDYWGQGTQVTVSS”, “low polyreactivity”.
With “QVQLVESGGGLVQAGGSLRLSCAASGNIFETNAMGWYRQAPGKERELVAAITRSGGSTYYADSVKGRFTISRDNAKNTVYLQMNSLKPEDTAVYYCAYYPYGYDYWGQGTQVTVSS” the entry was “high polyreactivity”; with “QVQLVESGGGLVQAGGSLRLSCAASGNIFETNAMGWYRQAPVKERELVAAISASGGSTYYADSVKGRFTISRDNAKNNVYLQMNSLKPEDTAVYYCNDRVDSYYGDAFDYWGQGTQVTVSS”, “high polyreactivity”.
With “QVQLVESGGGLVQAGGSLRLSCAASGNIFFGYAMGWYRQAPGKEREFVASITKIGGSTYYADSVQGRFTISRDNAKNTVYLQMNSLKPEHTAVYYCAKTILYDCDYWGQGTQVTVSS”, the “polyreactivity (PSR sort gate)” value is given as “low polyreactivity”.
In the case of “QVQLVESGGGLVQAGGSLRLSCAASGNIFGHYAMGWYRQAPGKERELVAAISSRGGRTYYADSVKGRFTISRDNAKNTVYLQMNSLKPEDTAVYYCAHKTRQKFGYWGQGTQVTVSS” it was “high polyreactivity”; in that of “QVQLVESGGGLVQAGGSLRLSCAASGNIFGRYAMGWYRQAPGKERELVAAISSGDITYYADSVKGRFTISRDNAKNTVYLQMNSLKPEDTAVYYCAADSYWSVVYIKYDYWGQGTQVTVSS”, “low polyreactivity”.
On to “QVQLVESGGGLVQAGGSLRLSCAASGNIFGWYAMGWYRQAPGKERELVAAISSGGRTNYADSVKGRFTISRDNAKNTVYLQMNSLKPEDTAVYYCAVGLHKRPPPPRFRQYNYWGQGTQVTVSS”, for which the “polyreactivity (PSR sort gate)” value is “low polyreactivity”.
With “QVQLVESGGGLVQAGGSLRLSCAASGNIFHDNAMGWYRQAPGKERELVAAISDSGGSTYYADSVKGRFTISRDTAKNTVYLQMNSLKPEDTAVYYCDSGRTYYAPYQWWYDYWGQGTQVTVSS”, the “polyreactivity (PSR sort gate)” value is reported as “high polyreactivity”.
In the case of “QVQLVESGGGLVQAGGSLRLSCAASGNIFIRYAMGWYRQAPGKERELVAAISQSGGGTSYADSVKGRFRISRDNAKNTVYLQMNSLKPEDTAVSYCNVEKVGHFNSYGYDYWGQGTQVTVSS” it was “low polyreactivity”.
In the case of “QVQLVESGGGLVQAGGSLRLSCAASGNIFKQYTMGWYRQAPGKERELVAAIRSRGGSTYYADSVKGRLTISRDNAKNTVYLQMNSLKPEDTAVYYCAKVLGRTTLRMDYWGQGPQVTVSS”, the “polyreactivity (PSR sort gate)” value was “high polyreactivity”.
For “QVQLVESGGGLVQAGGSLRLSCAASGNIFLSYAMGWYRQAPGKERDLVAGISASGGRTYYADSVKGRFTISRDNAKNTVYFQMNSLKPEDTALYYCNAGWGVVIRRYPTYDYWGQGTQVTVSS”, the “polyreactivity (PSR sort gate)” value is listed as “high polyreactivity”.
Regarding “QVQLVESGGGLVQAGGSLRLSCAASGNIFLYYAMGWYRQAPGKERELVADIDSSGASTYYADSVKGRFTISRDNAKNTVYLQMNSLKPEDTAVYNCAARAERVREYNYWGQGTQVTVSS”, the “polyreactivity (PSR sort gate)” value is on record as “low polyreactivity”.
In the case of “QVQLVESGGGLVQAGGSLRLSCAASGNIFNEYARGWYSQAPGKESELVAAITWSAGSTYYADSVKGRFTISRDNAKNTVYLQMNSVKPEDTGVYYCNTQEKANTQHYYWGQGTQVTVSS” it was “low polyreactivity”; in that of “QVQLVESGGGLVQAGGSLRLSCAASGNIFPPNTMGWDRQAPGKDRELVAAISSRGSRTYYADSVKGRFTISRDNAKNTVYLQMNSLKPEDTAVYYCAAQQWQGGYLYDYWGQGTQVTVSS”, “high polyreactivity”; in that of “QVQLVESGGGLVQAGGSLRLSCAASGNIFQGNAMGWYRQAPGKERELVAAITSDGSTYADSVKGRFTISRDNAKNTVYLQLNSLKPEDTAVYYCNADGITSLPVPALDYWGQGTQATVSS”, “low polyreactivity”.
For “QVQLVESGGGLVQAGGSLRLSCAASGNIFQGNAMGWYRQAPGKERELVAAITSDGSTYADSVKGRFTISRDNAKNTVYLQMNSLKPEETAVYYCNADCITSLPVPALDYWGQGTQVTVSS”, the “polyreactivity (PSR sort gate)” value is listed as “low polyreactivity”.
In the case of “QVQLVESGGGLVQAGGSLRLSCAASGNIFQRYAMGWYRQAPGKVRELVAAISGNGGNSFYADSVKGRFTISRDNAKYTVYLQMNSLKPEDTAVYYCNTVYVVYGFDYWGQGTQVTVSS”, the “polyreactivity (PSR sort gate)” value was “high polyreactivity”.
With “QVQLVESGGGLVQAGGSLRLSCAASGNIFRIYAMGWYRQAPGKERALVAAITSRGAITNYADSVKGRFTISRDYAKNTVYLQMISLKPEDTAVYYCAASYRRLTGVGADEYWGQGTQVTVSS” the entry was “high polyreactivity”; with “QVQLVESGGGLVQAGGSLRLSCAASGNIFRKNAMGWYRQAPGKERELVAAITSVGSTNYADSVKGRFTISRDNAKNTVYLQMTSLKPEDTAVYYCDARSQIYYRYRSYGYWGQGTQVTVSS”, “high polyreactivity”; with “QVQLVESGGGLVQAGGSLRLSCAASGNIFRNNAMGWYRQAPGKERELVAAISRGGSTYYADSVKGRFTISRDNAKNTVYLQMNSLKPEDTAVYYCNKYSSRAYNYWGQGTHVTVSS”, “high polyreactivity”.
With “QVQLVESGGGLVQAGGSLRLSCAASGNIFRSYAMGWYRQAPGKERELVAAISSSDDSTYYADSVKGRFTISRDNAKNTVYLQMNSLKPEDTAVYYCAADGWSWYKGYVGDDMDYWGQGTQVTVSS” the entry was “low polyreactivity”; with “QVQLVESGGGLVQAGGSLRLSCAASGNIFSAYAMGWYRQAPGTERELVAAISRSVTITYYADSVKGRFTISRDNAKKTDYLQMNSLKPEDTAVYYCAARDYHYPKFGYCGQGTQVTVSS”, “high polyreactivity”.
For the sequence “QVQLVESGGGLVQAGGSLRLSCAASGNIFSDNAMGWYRQAPGKERELVATITSSGVSTYYADSVKGRFTISRDNAKNTVYLQMNSLKPEDTAVYYGAVQGFRYHSREYDYWGQGTQVTVSS”, the “polyreactivity (PSR sort gate)” value is recorded as “low polyreactivity”.
For the sequence “QVQLVESGGGLVQAGGSLRLSCAASGNIFSDYAMGWYRPAPGKERELVAAISSGGNTNYADSVKGRFTISRDNAKNTVYLQMNSLKPEDTAVYYCAADPGYYVSAYDYWGQGTQVTVSS”, the “polyreactivity (PSR sort gate)” value is “low polyreactivity”.

Values taken from the nanobody polyreactivity screen of Harvey et al. (2022).
